The nature of this series: protein stability index of a GFP-peptide fusion (GPS, HEK-293T) (PSI 1-6); higher = more stable.
The mark [1] stands for this setting: treatment: DMSO, c terminus: a fixed tail appended.
Setting [2] is: treatment: MLN4924 1 uM, 8 h, c terminus: a fixed tail appended.
Setting [3] is: treatment: DMSO, c terminus: native.
Setting [4] is: treatment: MLN4924 1 uM, 8 h, c terminus: native.

± gives the standard deviation.
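Also: 24-mer peptide tiles fused after GFP, lentivirally expressed, FACS-sorted into six equal bins by GFP/DsRed ratio, decoded by Illumina sequencing, PSI is the read-weighted mean bin number.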

For IYGRSQNPVQPIGPQTPKACDSKL [MMP1], the protein stability index was 4.15 ± 0.17 under setting [1] and 4.08 ± 0.12 under setting [2].

As for IYRHRIPSTICFGQGAARGFKSNK [ZNF511], the protein stability index was determined as 3 ± 0.37 under setting [1] and 3.64 ± 0.13 under setting [2].

Consider KAFWKEDNALWERDRNLLQEDKAL [CCDC70], for which the protein stability index came to 4.16 ± 0.081 under setting [1] and 4.24 ± 0.18 under setting [2].

In turn, KAKFCSTVANDVMLRTGLGVIRMW [NETO1] showed a protein stability index under setting [1] of 2.7 ± 0.51 and a protein stability index under setting [2] of 2.27 ± 0.29.

Regarding KAMFSGRVEVLTDAGGWVLIDRSG [KCTD13], the protein stability index runs as follows: under setting [1], 2.19 ± 0.21; under setting [2], 2.48 ± 0.47.

For the sequence KARSNSTLSKSEYMVIEEGGMNHS [KCNA3], the protein stability index by setting is: under setting [1], 4.57 ± 0.38; under setting [2], 4.33 ± 0.15.

For KCCGMRNTDVSMENMVTVGFFSCM [KCNK9], the protein stability index is 2.59 ± 0.48 under setting [1] and 2.51 ± 0.44 under setting [2].

Turning to KDRECQSQSLALKEQNNLKQLEFG [ZNF8], the protein stability index by setting is: under setting [1], 4.56 ± 0.3; under setting [2], 4.78 ± 0.63.

As to KEDNSLLNQGFLQAKPEKAAVAQK [MYBL2], the protein stability index under setting [1] amounted to 5.26 ± 0.12 and the protein stability index under setting [2] is 5.14 ± 0.56.

With KEEKEDEISLEDLIERERSALGPN [ZC3H15], the protein stability index reads like this: under setting [1], 5.31 ± 0.35; under setting [2], 5.26 ± 0.37.

With KEHWTPEGHSIVGFAMYYFTYDPW [SAT1], the protein stability index came out at 3.05 ± 0.44 under setting [1] and 3.1 ± 0.43 under setting [2].

With KEIDDVIDEIISLESSYNDEMLSY [TFE3], the protein stability index is 3.27 ± 0.26 under setting [1] and 3.5 ± 0.3 under setting [2].

For KETEFLRLKRTRLGLDDFESLKVI [STK38L], the protein stability index is, setting by setting: under setting [1], 2.44 ± 0.16; under setting [2], 2.56 ± 0.34.

KFSHSGRYMLTRDYLTVKVWDLNM [PPP2R2C]: the protein stability index reads like this: under setting [1], 2.35 ± 0.23; under setting [2], 2.33 ± 0.31.

In the case of KIANLGSCNDSKLEFRSFWELIGE [S100A14], the protein stability index under setting [1] came to 1.91 ± 0.33 and the protein stability index under setting [2] is 2.11 ± 0.38.

In the case of KIGVGAMTWSPLACGIVSGKYDSG [KCNAB2], the protein stability index reads like this: under setting [1], 2.81 ± 0.27; under setting [2], 2.85 ± 0.61.

On to KIIICSQNEEYLLTYINEDRISTT [PLK2], for which the protein stability index reads like this: under setting [1], 2.02 ± 0.35; under setting [2], 2.06 ± 0.36.

KIRRFNKAKPEPDILEEEKIYAYP [TMEM192]: the protein stability index is, setting by setting: under setting [1], 3.27 ± 0.35; under setting [2], 3.54 ± 0.52.

On to KKDNHALVRETDELRRNHCFQDFK [ELOA2], for which the protein stability index was determined as 4.11 ± 0.31 under setting [1] and 4.03 ± 0.3 under setting [2].

In the case of KKQDENEGIKVEDLLFIVDTMLEE [CEP70], the protein stability index stood at 3.25 ± 0.22 under setting [1] and 3.27 ± 0.23 under setting [2].

Sequence KKQLADETLLKVDLENRCQSLTED [LMNB1] yielded a protein stability index under setting [1] of 5.13 ± 0.23 and a protein stability index under setting [2] of 5.31 ± 0.076.

Consider KKYVKGDVSLCRWHPKPYCQALPY [FBXO34], for which the protein stability index turned out to be 2.31 ± 0.45 under setting [1] and 2.05 ± 0.28 under setting [2].

For KLDKKLKKMEQNKTAATRYRQKKR [ATF4], the protein stability index was determined as 4.48 ± 0.16 under setting [1] and 4.42 ± 0.23 under setting [2].

As for KLGAPLSGLQGLPECTRCGHGIVG [PDLIM4], the protein stability index amounted to 2.65 ± 0.25 under setting [1] and 2.75 ± 0.36 under setting [2].

Take KLREFLRVEEQAILDAMAEETRQK [TRIM35]: the protein stability index by setting is: under setting [1], 2.85 ± 0.53; under setting [2], 3.34 ± 0.18.

In the case of KLRFNRKKKGMYRKAITEAANAAR [PWWP2B], the protein stability index is, setting by setting: under setting [1], 3.42 ± 0.23; under setting [2], 3.29 ± 0.2.

KMKYKGQYRPSDLLCPETYVWVPI [ATE1] displayed a protein stability index under setting [1] of 2.01 ± 0.39 and a protein stability index under setting [2] of 2.03 ± 0.26.

Turning to KNIIHKTSGKRYVYRFVCDLQNLL [ETS2], the protein stability index reads like this: under setting [1], 2.96 ± 0.48; under setting [2], 2.69 ± 0.6.

In the case of KNTSEQDQPMGGWEMIRKIGDTSV [LMNB1], the protein stability index by setting is: under setting [1], 4.27 ± 0.18; under setting [2], 4.43 ± 0.22.

With KNTTYDLIANIVHDGKPSEGSYRI [USP39], the protein stability index came out at 2.62 ± 0.4 under setting [1] and 2.52 ± 0.32 under setting [2].

Take KPGPQDTVERPFYDLWASDNPLDR [NOP53]: the protein stability index reads like this: under setting [1], 4.45 ± 0.43; under setting [2], 4.38 ± 0.16.

Take KPTVFIGVPQIWEKIHEMVKKNSA [ACSBG2]: the protein stability index came to 2.75 ± 0.34 under setting [1] and 2.47 ± 0.81 under setting [2].

With KQECLITTFQDVYFVSESFEDAKE [TPH1], the protein stability index is, setting by setting: under setting [1], 4.08 ± 0.73; under setting [2], 4.45 ± 0.36.

For the sequence KQMSFLEKRGCPRTALEYCKLILS [TCF25], the protein stability index by setting is: under setting [1], 3.12 ± 1; under setting [2], 3.02 ± 0.2.

With KQQREKTRWLNSGRGDEASEEGQN [ADD1], the protein stability index is, setting by setting: under setting [1], 5.54 ± 0.16; under setting [2], 5.48 ± 0.26.

Take KQWGPLEREPVRGQCLDSTDQLEF [RTN2]: the protein stability index runs as follows: under setting [1], 4.45 ± 0.35; under setting [2], 4.71 ± 0.2.

For KRAFKIKDFANTIPGHGGIMDRFD [CDS2], the protein stability index under setting [1] was found to be 2.77 ± 0.27 and the protein stability index under setting [2] was determined as 2.91 ± 0.42.

KRGGNCPAPAPLVPQDPDLEEEEE [ZBTB22]: the protein stability index under setting [1] amounted to 5.56 ± 0.26 and the protein stability index under setting [2] was 5.59 ± 0.21.

In the case of KRKGIKSSIGRLFGKKEKGRLIQL [PPFIA4], the protein stability index reads like this: under setting [1], 2.46 ± 0.31; under setting [2], 2.22 ± 0.22.

For the sequence KRKSEVERAVKRMRHLSTGTMTGL [MATN2], the protein stability index reads like this: under setting [1], 3.31 ± 0.088; under setting [2], 3.12 ± 0.65.

On to KSGEEAVTVLEDLEKGLEPEPQVP [ZNF232], for which the protein stability index came out at 5.63 ± 0.17 under setting [1] and 5.62 ± 0.16 under setting [2].

For KSKAELQSEERKRIDELIESGKEE [KMT5A], the protein stability index worked out at 5.59 ± 0.25 under setting [1] and 5.67 ± 0.21 under setting [2].

Consider KSKSITNLAAAAADIPQDQLVVMH [BTBD10], for which the protein stability index runs as follows: under setting [1], 4.43 ± 0.34; under setting [2], 4.64 ± 0.4.

Take KSPPQLRQFLPEEFMKTLEKTGPQ [DENND6A]: the protein stability index runs as follows: under setting [1], 4.63 ± 0.3; under setting [2], 4.43 ± 0.32.

With KSYIFEGALGMSNRDSYFYAAIVA [VMA21], the protein stability index came out at 2.96 ± 0.66 under setting [1] and 2.6 ± 0.46 under setting [2].

In the case of KTEQQRRREKAVHRLRVQQAALRA [NOP53], the protein stability index under setting [1] came out at 3.98 ± 0.42 and the protein stability index under setting [2] was found to be 4.13 ± 0.18.

As to KVKWTHEEDEQLRALVRQFGQQDW [MYBL2], the protein stability index under setting [1] turned out to be 3.19 ± 0.44 and the protein stability index under setting [2] worked out at 3.44 ± 0.12.

Consider KVLIQKNLGPKSKVLILRNHGLVS [ADD1], for which the protein stability index reads like this: under setting [1], 2.08 ± 0.36; under setting [2], 2.16 ± 0.33.

For KVNLCGHWYYSKACCRSCRPPHS [ADAMTSL2], the protein stability index runs as follows: under setting [3], 2.86 ± 0.57; under setting [4], 3.17 ± 0.54.

On to KVTLRIRNVRFSDEGGFTCFFRDH [MOG], for which the protein stability index reads like this: under setting [1], 2.29 ± 0.5; under setting [2], 2.21 ± 0.14.

Consider KWLDMLNNWDKWMAKKHKKIRLRC [TBC1D10A], for which the protein stability index is, setting by setting: under setting [1], 2.62 ± 0.72; under setting [2], 2.27 ± 0.31.

Regarding KYLTYDQLRKQKKKTGKSSTTALG [ELOA2], the protein stability index is 3.35 ± 0.083 under setting [1] and 3.79 ± 0.34 under setting [2].

Sequence LAEGVSASLHTLLGDPCPMLESPG [HDAC6] had a protein stability index under setting [1] of 4 ± 0.28 and a protein stability index under setting [2] of 4.17 ± 0.29.

Regarding LAESGGSPDVLQMLKIHRSDPQLI [TRADD], the protein stability index by setting is: under setting [1], 3.16 ± 0.43; under setting [2], 3.36 ± 0.24.

LAEWEANPLICPVCTKYNLRITSG [RPAIN]: the protein stability index is, setting by setting: under setting [1], 3.35 ± 0.36; under setting [2], 3.31 ± 0.36.

Regarding LAGPNDRSDVEKGGKIIMPPSALD [UFD1], the protein stability index is 4.77 ± 0.11 under setting [1] and 4.97 ± 0.2 under setting [2].

Turning to LALFPLLPKVLQKYWCVTATRVAP [ZBED1], the protein stability index is, setting by setting: under setting [1], 2.98 ± 0.3; under setting [2], 2.94 ± 0.94.

As for LAPNFRWAIPNRQINDGMGGDGDD [BEX3], the protein stability index under setting [1] amounted to 4.77 ± 0.22 and the protein stability index under setting [2] was determined as 4.6 ± 0.26.

Consider LARKIASRNEFDRTIAETEAAYLK [SSNA1], for which the protein stability index turned out to be 3.57 ± 0.23 under setting [1] and 3.74 ± 0.3 under setting [2].

With LASRNTLFNLSNFLDKSGSHGYDM [SNAP91], the protein stability index was 2.2 ± 0.26 under setting [1] and 2.61 ± 0.16 under setting [2].

On to LAVRGSRRERELERRELAVEQGER [ZBED3], for which the protein stability index reads like this: under setting [1], 5.05 ± 0.2; under setting [2], 5.07 ± 0.18.

Consider LCLQLRDDIVSGRLPCSFVTLALL [EPB41L3], for which the protein stability index by setting is: under setting [1], 3.24 ± 0.61; under setting [2], 2.23 ± 0.45.

On to LCSSPLEAETPPNGPDCGYGSFHQ [ATE1], for which the protein stability index runs as follows: under setting [1], 4.28 ± 0.18; under setting [2], 4.24 ± 0.079.

For LCYPPAKGCLKLCRRCYDWIHRPG [SPRY1], the protein stability index runs as follows: under setting [1], 2.06 ± 0.094; under setting [2], 2.27 ± 0.33.

For the sequence LDHDIFQLIDPDENKENEAFEFKK [CDC25A], the protein stability index came out at 4.07 ± 0.083 under setting [1] and 4.13 ± 0.52 under setting [2].

Regarding LDKNKIPYKGFIPEDLEAFIELH [FEM1A], the protein stability index runs as follows: under setting [3], 3.1 ± 0.29; under setting [4], 3.06 ± 0.27.

LDLAGNNIPGDVLRAVEQAMGHSQ [LRRC45]: the protein stability index was 4.45 ± 0.39 under setting [1] and 4.44 ± 0.28 under setting [2].

Consider LDQLLHYRKKSAEFPDFYDSEEPV [CHGB], for which the protein stability index by setting is: under setting [1], 3.96 ± 0.34; under setting [2], 4 ± 0.15.

As for LDSSEGSSQEDEDLGLSEGSSQDS [SPANXN3], the protein stability index is, setting by setting: under setting [1], 5.66 ± 0.19; under setting [2], 5.64 ± 0.23.

For LEEGSSFWNQGLTWKVLFCSMSAT [CLCN6], the protein stability index came to 3.06 ± 0.55 under setting [1] and 2.63 ± 0.67 under setting [2].

Consider LELGSTEVLLDHLKAHAEEKPPSG [PLAGL1], for which the protein stability index reads like this: under setting [1], 4.46 ± 0.28; under setting [2], 4.94 ± 0.2.

Take LEPLGAPQAPAPATATDTFEAAPP [CEBPB]: the protein stability index under setting [1] amounted to 5.38 ± 0.42 and the protein stability index under setting [2] worked out at 5.39 ± 0.44.
